According to patent US20250144178A1, “PHARMACEUTICAL COMPOSITION FOR CANCER TREATMENT COMPRISING FUSION PROTEIN INCLUDING IL-12 AND ANTI-FAP ANTIBODY AND ANTICANCER AGENT” (KANAPH THERAPEUTICS INC., priority 2022, published 2025):

Columns and labels:
recombinant mouse FAP = target: T1, recombinant mouse FAP (Mus musculus, UniProt P97321); experiment: Surface plasmon resonance binding to recombinant mouse FAP; conditions: SPR, 2 μg/ml protein, FIGS. 13 and 14
T1 sequence (P97321 1-761): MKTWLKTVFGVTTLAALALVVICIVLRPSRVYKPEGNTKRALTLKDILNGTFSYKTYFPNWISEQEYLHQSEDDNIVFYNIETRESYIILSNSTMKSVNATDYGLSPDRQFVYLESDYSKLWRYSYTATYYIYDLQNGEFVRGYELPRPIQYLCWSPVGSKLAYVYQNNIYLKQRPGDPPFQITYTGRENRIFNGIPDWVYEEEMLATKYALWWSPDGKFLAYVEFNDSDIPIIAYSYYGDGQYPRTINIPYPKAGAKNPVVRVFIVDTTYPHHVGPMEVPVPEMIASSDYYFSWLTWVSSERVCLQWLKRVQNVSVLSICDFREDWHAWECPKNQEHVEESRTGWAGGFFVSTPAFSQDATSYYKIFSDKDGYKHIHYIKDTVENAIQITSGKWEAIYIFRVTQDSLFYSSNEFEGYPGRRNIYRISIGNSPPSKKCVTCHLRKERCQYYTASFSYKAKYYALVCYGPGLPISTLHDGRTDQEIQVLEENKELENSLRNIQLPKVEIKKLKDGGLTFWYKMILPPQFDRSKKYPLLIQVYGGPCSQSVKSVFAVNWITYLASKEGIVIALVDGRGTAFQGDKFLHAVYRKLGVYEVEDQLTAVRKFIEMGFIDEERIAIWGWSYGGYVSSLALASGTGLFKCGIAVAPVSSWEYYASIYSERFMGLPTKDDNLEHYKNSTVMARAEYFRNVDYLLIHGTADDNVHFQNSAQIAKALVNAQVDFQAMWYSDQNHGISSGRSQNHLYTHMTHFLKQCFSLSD
Protocol: The surface of the CM5 chip was activated with a 1:1 mixture of […] (N-hydroxysuccinimide) and […] (1-Ethyl-3-(3-dimethylaminopropyl) carbodiimide), and 25 μg/ml of anti-mouse IgG (Fc) antibody was immobilized for 400 seconds at a rate of 10 μl/min. The remaining active ester groups were blocked with 1 M ethanolamine. T1.01m, T1.02m and T1.03m were diluted to 2 μg/ml and reacted on the CM5 chip immobilized with the anti-mouse IgG (Fc) antibody. The recombinant mouse FAP was diluted to 200 nM in 1×HBS-EP+buffer solution and diluted by serial dilution. The diluted recombinant mouse FAP was reacted at a rate of 30 μl/min. The association and dissociation times were 180 seconds and 400 seconds, respectively. After the dissociation, stabilization was performed for 60 seconds, and then a regeneration was performed for 30 seconds with a 10 mM glycine pH 1.5 solution at a rate of 30 μl/min.

[1] = test system: CT26 colorectal cancer with mouse FAP overexpressing NIH-3T3 cells; experiment: Tumor growth inhibition, CT26 co-injected with mouse FAP overexpressing NIH-3T3; type: in vivo, BALB/c mice
Protocol: Specifically, the mouse FAP overexpressing NIH-3T3 cells and the CT26 cells in culture were resuspended in Hanks' Balanced salt solution (HBSS, Gibco) at a concentration of 1×10^6 cells/50 μl, respectively, and the cells were mixed in a 1:1 ratio, and then 100 μl per each mouse was transplanted into the subcutaneous region of the right flank of 6-week-old BALB/c mice using a 1 cc syringe (25G) to obtain an FAP-expressing fibroblast co-injection animal model. The tumor size was measured using a digital vernier caliper by measuring the short axis and long axis of the tumor, and the tumor size was measured twice a week using the calculation formula of (short axis, mm) 2×(long axis, mm)×0.5.
Next, for drug efficacy evaluation, when the size of the tumor reached 100 mm^3, the mice were randomly divided into groups. Each experimental group consisted of 10 animals, and as a control, each 100 μl of 50 μg of T1.24m was intraperitoneally administered three times at an interval of 3 days. In the test group, each 100 μl of 10 μg and 50 μg of T1.02m and 50 μg of T1.01m, respectively, were intraperitoneally administered three times at an interval of 3 days to evaluate the tumor growth inhibitory ability.

4T1 tumor = experiment: Tumor re-challenge in mice with complete response, 4T1 tumor; type: in vivo, BALB/c mice; conditions: mice with complete response after T1.01m, left flank, FIG. 27
Protocol: In order to evaluate whether tumor recurrence may be inhibited by inducing long-term immune response after fusion protein treatment, tumor re-challenge was performed in subjects in which complete response was achieved by administration of T1.01m in a tumor model transplanted with CT26 cells overexpressing FAP. BALB/c mice without a treatment history were used as control mice.
4T1 cells were subcutaneously injected into the left flank and CT26 cells were subcutaneously injected into the right flank of control mice and mice in which complete response was achieved by administration of T1.01m, to obtain a tumor recurrence model.
CT26 cells and 4T1 cells were suspended in Hanks' Balanced salt solution (HBSS, Gibco) at a concentration of 1×10^6 cells/100 μl, respectively, and CT26 cells were transplanted into the subcutaneous region of the right flank of the mice using a 1 cc syringe (25G). Tumor formation and growth were evaluated by subcutaneous transplantation of 4T1 cells into the left flank of the same mice. Nine animals were used for the control group, and seven animals were used for the test group.

[2] = test system: mouse FAP overexpressing B16F10 melanoma; experiment: Melanoma model, mouse FAP overexpressing B16F10; type: in vivo, C57BL/6J mice; conditions: 10 μg and 100 μg i.v. once, control PBS, FIG. 30
Protocol: In order to identify the anticancer effect through immune activation of the fusion protein, mouse FAP was overexpressed in the mouse melanoma cell line B16F10, which is known to have little immune cell infiltration, and then transplanted into C57BL/6J mice, and the tumor growth inhibitory ability was evaluated.
Specifically, the cells in culture were resuspended in Hanks' Balanced salt solution (HBSS, Gibco), and then 100 μl of 1×10^6 tumor cells per each mouse were transplanted into the subcutaneous region of the left the dorsal flank side of 6-week-old C57BL/6J mice.
Next, for drug efficacy evaluation, when the size of the tumor reached 70 to 100 mm^3, the mice were randomly divided into groups. As the control, PBS was administered, and as the test group, T1.03m was intravenously administered once at a dose of 10 μg and 100 μg.

B1: T1.01m: K&H bispecific: anti-mu FAP/mu IL-12, mu IgG2a DANG (seq18, seq19, seq20) (antibody)
heavy: QVQLQQSGAELARPGASVNLSCKASGYTFTNNGINWLKQRTGQGLEWIGEIYPRSTNTLYNEKFKGKATLTADRSSNTAYMELRSLTSEDSAVYFCARTLTAPFAFWGQGTLVTVSAAKTTAPSVYPLAPVCGDTTGSSVTLGCLVKGYFPEPVTLTWNSGSLSSGVHTFPAVLQSDLYTLSSSVTVTSSTWPSQSITCNVAHPASSTKVDKKIEPRGPTIKPCPPCKCPAPNLLGGPSVFIFPPKIKDVLMISLSPIVTCVVVAVSEDDPDVQISWFVNNVEVHTAQTQTHREDYGSTLRVVSALPIQHQDWMSGKEFKCKVNNKDLPAPIERTISKPKGSVRAPQVYVLPPPEEEMTKKQVTLWCMVTDFMPEDIYVEWTNNGKTELNYKNTEPVLDSDGSYFMYSKLRVEKKNWVERNSYSCSVVHEGLHNHHTTKSFSRTPGK
light: QIVLTQSPAIMSASPGEKVTMTCSASSGVNFMHWYQQKSGTSPKRWIFDTSKLASGVPARFSGSGSGTSYSLTISSMEAEDAATYYCQQWSFNPPTFGGGTKLEIKRADAAPTVSIFPPSSEQLTSGGASVVCFLNNFYPKDINVKWKIDGSERQNGVLNSWTDQDSKDSTYSMSSTLTLTKDEYERHNSYTCEATHKTSTSPIVKSFNRNEC
chain: MWELEKDVYVVEVDWTPDAPGETVNLTCDTPEEDDITWTSDQRHGVIGSGKTLTITVKEFLDAGQYTCHKGGETLSHSHLLLHKKENGIWSTEILKNFKNKTFLKCEAPNYSGRFTCSWLVQRNMDLKFNIKSSSSSPDSRAVTCGMASLSAEKVTLDQRDYEKYSVSCQEDVTCPTAEETLPIELALEARQQNKYENYSTSFFIRDIIKPDPPKNLQMKPLKNSQVEVSWEYPDSWSTPHSYFSLKFFVRIQRKKEKMKETEEGCNQKGAFLVEKTSTEVQCKGGNVCVQAQDRYYNSSCSKWACVPCRVRSGGGGSGGGGSGGGGSRVIPVSGPARCLSQSRNLLKTTDDMVKTAREKLKHYSCTAEDIDHEDITRDQTSTLKTCLPLELHKNESCLATRETSSTTRGSCLPPQKTSLMMTLCLGSIYEDLKMYQTEFQAINAALQNHNHQQIILDKGMLVAIDELMQSLNHNGETLRQKPPVGEADPYRVKMKLCILLHAFSTRVVTINRVMGYLSSAGGGGSGGGGSEPRGPTIKPCPPCKCPAPNLLGGPSVFIFPPKIKDVLMISLSPIVTCVVVAVSEDDPDVQISWFVNNVEVHTAQTQTHREDYGSTLRVVSALPIQHQDWMSGKEFKCKVNNKDLPAPIERTISKPKGSVRAPQVYVLPPPEEEMTKKQVTLSCAVTDFMPEDIYVEWTNNGKTELNYKNTEPVLDSDGSYFMVSKLRVEKKNWVERNSYSCSVVHEGLHNHHTTKSFSRTPGK
Which results are given for B1?
Binding to recombinant mouse FAP (recombinant mouse FAP): may bind to recombinant mouse FAP to specifically target FAP; tumor growth inhibitory ability compared to control ([1]; 50 μg i.p. three times at an interval of 3 days, 14th day, control 50 μg T1.24m): 91.9%; complete response ([1]; 24th day after administration, FIG. 24): subjects in complete response were observed; growth of re-challenged 4T1 tumor (4T1 tumor): the 4T1 tumor grew; tumor growth inhibitory ability compared to the control [2]: high tumor growth inhibitory ability
